# IntAct's records for PubMed 29039417
# B1: BBSome complex member BBS1 (Homo sapiens), Q8NFJ9 (parent)
# chain: MAAASSSDSDACGAESNEANSKWLDAHYDPMANIHTFSACLALADLHGDGEYKLVVGDLGPGGQQPRLKVLKGPLVMTESPLPALPAAAATFLMEQHEPRTPALALASGPCVYVYKNLRPYFKFSLPQLPPNPLEQDLWNQAKEDRIDPLTLKEMLESIRETAEEPLSIQSLRFLQLELSEMEAFVNQHKSNSIKRQTVITTMTTLKKNLADEDAVSCLVLGTENKELLVLDPEAFTILAKMSLPSVPVFLEVSGQFDVEFRLAAACRNGNIYILRRDSKHPKYCIELSAQPVGLIRVHKVLVVGSTQDSLHGFTHKGKKLWTVQMPAAILTMNLLEQHSRGLQAVMAGLANGEVRIYRDKALLNVIHTPDAVTSLCFGRYGREDNTLIMTTRGGGLIIKILKRTAVFVEGGSEVGPPPAQAMKLNVPRKTRLYVDQTLREREAGTAMHRAFQTDLYLLRLRAARAYLQALESSLSPLSTTAREPLKLHAVVQGLGPTFKLTLHLQNTSTTRPVLGLLVCFLYNEALYSLPRAFFKVPLLVPGLNYPLETFVESLSNKGISDIIKVLVLREGQSAPLLSAHVNMPGSEGLAAA
# partner: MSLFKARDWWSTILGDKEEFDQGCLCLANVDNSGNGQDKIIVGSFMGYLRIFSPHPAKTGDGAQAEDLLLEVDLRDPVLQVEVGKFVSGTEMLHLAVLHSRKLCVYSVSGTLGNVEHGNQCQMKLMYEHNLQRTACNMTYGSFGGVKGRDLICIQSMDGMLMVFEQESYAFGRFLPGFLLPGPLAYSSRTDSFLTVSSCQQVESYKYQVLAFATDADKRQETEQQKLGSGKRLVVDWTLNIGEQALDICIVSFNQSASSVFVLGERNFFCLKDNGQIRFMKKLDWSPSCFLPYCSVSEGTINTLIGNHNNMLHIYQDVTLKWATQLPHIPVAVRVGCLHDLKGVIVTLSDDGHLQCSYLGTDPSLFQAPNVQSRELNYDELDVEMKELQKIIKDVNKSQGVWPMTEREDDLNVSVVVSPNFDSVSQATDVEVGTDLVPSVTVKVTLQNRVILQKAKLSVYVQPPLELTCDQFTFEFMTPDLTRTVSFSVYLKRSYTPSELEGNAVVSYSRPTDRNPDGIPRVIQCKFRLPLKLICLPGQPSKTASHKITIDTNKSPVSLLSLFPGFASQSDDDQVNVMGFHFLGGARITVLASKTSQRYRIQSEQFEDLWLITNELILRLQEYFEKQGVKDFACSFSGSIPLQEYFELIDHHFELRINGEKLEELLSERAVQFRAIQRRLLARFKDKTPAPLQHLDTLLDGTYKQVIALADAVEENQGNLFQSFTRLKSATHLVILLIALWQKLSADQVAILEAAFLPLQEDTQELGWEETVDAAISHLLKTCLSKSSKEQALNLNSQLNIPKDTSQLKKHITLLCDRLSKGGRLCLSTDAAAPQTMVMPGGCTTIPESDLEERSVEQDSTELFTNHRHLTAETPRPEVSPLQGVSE
# B2: BBSome complex member BBS2 (Homo sapiens), Q9BXC9 (parent)
# chain: MLLPVFTLKLRHKISPRMVAIGRYDGTHPCLAAATQTGKVFIHNPHTRNQHVSASRVFQSPLESDVSLLSINQAVSCLTAGVLNPELGYDALLVGTQTNLLAYDVYNNSDLFYREVADGANAIVLGTLGDISSPLAIIGGNCALQGFNHEGSDLFWTVTGDNVNSLALCDFDGDGKKELLVGSEDFDIRVFKEDEIVAEMTETEIVTSLCPMYGSRFGYALSNGTVGVYDKTSRYWRIKSKNHAMSIHAFDLNSDGVNELITGWSNGKVDARSDRTGEVIFKDNFSSAIAGVVEGDYRMDGHIQLICCSVDGEIRGYLPGTAEMRGNLMDTSAEQDLIRELSQKKQNLLLELRNYEENAKAELASPLNEADGHRGIIPANTRLHTTLSVSLGNETQTAHTELRISTSNDTIIRAVLIFAEGIFTGESHVVHPSIHNLSSSICIPIVPPKDVPVDLHLKAFVGYRSSTQFHVFESTRQLPRFSMYALTSLDPASEPISYVNFTIAERAQRVVVWLGQNFLLPEDTHIQNAPFQVCFTSLRNGGHLHIKIKLSGEITINTDDIDLAGDIIQSMASFFAIEDLQVEADFPVYFEELRKVLVKVDEYHSVHQKLSADMADHSNLIRSLLVGAEDARLMRDMKTMKSRYMELYDLNRDLLNGYKIRCNNHTELLGNLKAVNQAIQRAGRLRVGKPKNQVITACRDAIRSNNINTLFKIMRVGTASS
# partner: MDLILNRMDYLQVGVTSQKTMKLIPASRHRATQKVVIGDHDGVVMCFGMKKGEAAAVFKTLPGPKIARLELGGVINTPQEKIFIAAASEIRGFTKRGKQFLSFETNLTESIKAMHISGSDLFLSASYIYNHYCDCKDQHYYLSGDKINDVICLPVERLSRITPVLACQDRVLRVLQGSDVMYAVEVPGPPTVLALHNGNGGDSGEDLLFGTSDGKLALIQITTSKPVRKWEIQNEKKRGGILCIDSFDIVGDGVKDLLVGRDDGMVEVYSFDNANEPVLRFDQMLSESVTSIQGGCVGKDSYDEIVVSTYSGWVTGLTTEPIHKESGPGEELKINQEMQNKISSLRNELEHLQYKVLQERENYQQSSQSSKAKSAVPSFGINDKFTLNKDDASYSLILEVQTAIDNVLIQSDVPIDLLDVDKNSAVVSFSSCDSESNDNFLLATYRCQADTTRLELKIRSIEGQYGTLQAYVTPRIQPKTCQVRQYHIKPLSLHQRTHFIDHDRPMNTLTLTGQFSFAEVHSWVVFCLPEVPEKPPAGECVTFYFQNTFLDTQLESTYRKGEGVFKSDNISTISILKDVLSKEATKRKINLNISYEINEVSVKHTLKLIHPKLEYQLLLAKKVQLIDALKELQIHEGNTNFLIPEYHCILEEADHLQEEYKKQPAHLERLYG
# Variants of: B1
# Conditions: with pthb1_human BBS9, Q3SYG4
row,Variant,effect of a mutation on the interaction
1,L540A,with no effect
2,L540E,disrupting interaction strength
3,L540K,disrupting interaction strength
4,V541A,with no effect
5,V541E,with no effect
6,V541K,with no effect
7,P542A,with no effect
8,P542E,with no effect
9,P542K,disrupting interaction strength
10,G543A,with no effect
11,G543E,with no effect
12,G543K,with no effect
13,L544A,with no effect
14,L544E,with no effect
15,L544K,with no effect
16,N545A,with no effect
17,N545E,with no effect
18,N545K,with no effect
19,Y546A,with no effect
20,Y546E,disrupting interaction strength
21,Y546K,with no effect

row,Variant,effect of a mutation on the interaction
1,P547A,with no effect
2,P547E,with no effect
3,P547K,with no effect
4,L548A,with no effect
5,L548E,disrupting interaction strength
6,L548K,with no effect
7,E549A,with no effect
8,E549K,with no effect
9,T550A,with no effect
10,T550E,with no effect
11,T550K,with no effect
12,F551A,with no effect
13,F551E,with no effect
14,F551K,with no effect
15,V552A,with no effect
16,V552E,disrupting interaction strength
17,V552K,disrupting interaction strength
18,E553A,with no effect
19,E553K,with no effect
20,S554A,with no effect
21,S554E,disrupting interaction strength

row,Variant,effect of a mutation on the interaction
1,S554K,with no effect
2,L555A,with no effect
3,L555E,with no effect
4,L555K,with no effect
5,S556A,with no effect
6,S556E,with no effect
7,S556K,with no effect
8,N557A,with no effect
9,N557E,with no effect
10,N557K,with no effect
11,K558A,with no effect
12,K558E,with no effect
13,G559A,with no effect
14,G559E,with no effect
15,G559K,with no effect
16,I560A,with no effect
17,I560E,with no effect
18,I560K,with no effect
19,S561A,with no effect
20,S561E,with no effect
21,S561K,with no effect

# Now from value to variant:
row,effect of a mutation on the interaction,Variant
1,with no effect,D562A
2,with no effect,D562E
3,with no effect,D562K
4,with no effect,I563A
5,with no effect,I563E
6,with no effect,I563K
7,disrupting interaction strength,I564A
8,disrupting interaction strength,I564E
9,disrupting interaction strength,I564K
10,with no effect,K565A
11,with no effect,K565E
12,with no effect,V566A
13,disrupting interaction strength,V566E
14,disrupting interaction strength,V566K
15,with no effect,L567A
16,with no effect,L567E
17,with no effect,L567K
18,disrupting interaction strength,V568A
19,disrupting interaction strength,V568E
20,disrupting interaction strength,V568K
21,with no effect,L569A
22,disrupting interaction strength,L569E
23,with no effect,L569K

row,effect of a mutation on the interaction,Variant
1,with no effect,R570A
2,with no effect,R570E
3,with no effect,R570K
4,with no effect,E571A
5,with no effect,E571K
6,with no effect,G572A
7,with no effect,G572E
8,with no effect,G572K
9,with no effect,Q573A
10,with no effect,Q573E
11,with no effect,Q573K
12,with no effect,S574A
13,with no effect,S574E
14,with no effect,S574K
15,with no effect,A575E
16,with no effect,A575K
17,with no effect,P576A
18,with no effect,P576E
19,disrupting interaction strength,P576K
20,with no effect,L577A
21,with no effect,L577E
22,with no effect,L577K
23,with no effect,L578A

row,effect of a mutation on the interaction,Variant
1,with no effect,L578E
2,with no effect,L578K
3,with no effect,S579A
4,with no effect,S579E
5,with no effect,S579K
6,with no effect,A580E
7,with no effect,A580K
8,with no effect,H581A
9,with no effect,H581E
10,with no effect,H581K
11,with no effect,V582A
12,with no effect,V582E
13,with no effect,V582K
14,with no effect,N583A
15,with no effect,N583E
16,with no effect,N583K
17,with no effect,M584A
18,with no effect,M584E
19,with no effect,M584K
20,with no effect,P585A
21,with no effect,P585E
22,with no effect,P585K
23,with no effect,G586A

row,effect of a mutation on the interaction,Variant
1,with no effect,G586E
2,with no effect,G586K
3,disrupting interaction strength,G586R
4,with no effect,S587A
5,with no effect,S587E
6,with no effect,S587K
7,with no effect,E588A
8,with no effect,E588K
9,with no effect,G589A
10,with no effect,G589E
11,with no effect,G589K
12,with no effect,L590A
13,with no effect,L590E
14,with no effect,L590K
15,with no effect,A591E
16,with no effect,A591K
17,with no effect,A592E
18,with no effect,A592K
19,with no effect,A593E
20,with no effect,A593K

# Variants of: B1
# Conditions: with pthb1_human BBS9, Q3SYG4
# Remark: another data set of the same source
row,Variant,effect of a mutation on the interaction
1,Y546K,disrupting interaction strength
2,I564A,with no effect
3,L503H,disrupting interaction strength
4,R512H,with no effect

# Variants of: B1
# Conditions: with pthb1_human BBS9, Q3SYG4
# Remark: another data set of the same source
row,Variant,effect of a mutation on the interaction
1,L548E,with no effect

# Variants of: B2
# Conditions: with BBS7, Q8IWZ6-2
row,Variant,effect of a mutation on the interaction
1,R325A,with no effect
2,R325E,with no effect
3,R325K,with no effect
4,G326A,with no effect
5,G326E,with no effect
6,G326K,with no effect
7,N327A,with no effect
8,N327E,with no effect
9,N327K,with no effect
10,L328A,with no effect
11,L328E,with no effect
12,L328K,with no effect
13,M329A,with no effect
14,M329E,with no effect
15,M329K,with no effect
16,D330A,with no effect
17,D330E,with no effect
18,D330K,with no effect
19,T331A,with no effect
20,T331E,with no effect
21,T331K,with no effect
